Article PMC10646984 (Biomacromolecules, 2023)

Columns and labels:
[1] = target: asialofetuin (ASF; a glycoprotein terminated with LacNAc moieties) (UniProt P12763); assay: ELISA; direct binding: ASF (0.1 μM in PBS) coated on the plate, serial dilution of the galectin in EPBS (2 mM EDTA in PBS), bound galectin detected with anti-His antibody-HRP
[2] = DLS hydrodynamic diameter of single components (galectins, Lac-CS-DDMs); assay type: physicochemical; settings: single component 10 μM in PBS, 25 °C
Method: The hydrodynamic diameter of the nanoparticles of galectins, Lac-CS-DDMs, and their aggregates was measured by dynamic light scattering (DLS) using a Zetasizer Nano ZS (Malvern Instruments Ltd., UK) at 25 °C in Malvern disposable plastic microcuvettes (100 μL sample volume). The light scattered at 173° from the incident light was fitted to an autocorrelation function using the method of cumulants (Malvern Instruments Ltd., UK). Commercial sterile PBS was used for sample preparation. […] Mixtures of components were incubated for 90 min at room temperature. The samples were vortexed prior to measurements. The hydrodynamic diameters were determined from five independent repetitions (each 10–50 runs). Multimodal intensity-weighted particle size distribution was used for data analysis.
DLS experiments on the A series of Lac-CS-DDMs and G3-B-AcLac32 were performed to provide insight into the complexity of multivalent galectin/Lac-CS-DDM interactions (Table 2). Unlike ELISA assays that simulate competitive binding on the cell surface, DLS is a straightforward method to evaluate non-surface bound multivalent assemblies.[71] Thus, it is interesting to relate the data obtained by these two methods. Since the transformation of intensity-weighted size distribution to volume-weighted size distribution requires information on the refractive index and absorption of the formed particles and assumes their homogeneity and spherical shape,[72] all presented data come from the analysis of the multimodal intensity-weighted size distribution. As the scattering intensity correlates with the particle diameter to the sixth power, whereas the mass only to the third power, the abundance of larger particles is overestimated at the expense of the smaller ones with respect to the real sample composition, especially in the case of polydisperse samples with multiple size populations.[73] This means that, due to the presence of large aggregates, the particles smaller by orders of magnitude present in the sample may not be detected. Despite the above bottlenecks, we believe that using the size-to-intensity plot is the most appropriate as it is highly sensitive to a starting aggregation, which may be undetectable in the size-to-volume distribution, and it is well suited to compare results between different galectins and Lac-CS-DDM generations to address general differences and trends in their aggregation behavior.

[3] = target: T1, Gal-8 (Homo sapiens, UniProt O00214); assay: competitive ELISA with immobilized asialofetuin (ASF), Gal-8; assay type: binding; settings: 1 μM Gal-8, immobilized ASF, DMSO co-solvent
T1 construct: made in house; host or cells: Escherichia coli Rosetta 2(DE3)pLysS
T1 sequence (O00214 1-317): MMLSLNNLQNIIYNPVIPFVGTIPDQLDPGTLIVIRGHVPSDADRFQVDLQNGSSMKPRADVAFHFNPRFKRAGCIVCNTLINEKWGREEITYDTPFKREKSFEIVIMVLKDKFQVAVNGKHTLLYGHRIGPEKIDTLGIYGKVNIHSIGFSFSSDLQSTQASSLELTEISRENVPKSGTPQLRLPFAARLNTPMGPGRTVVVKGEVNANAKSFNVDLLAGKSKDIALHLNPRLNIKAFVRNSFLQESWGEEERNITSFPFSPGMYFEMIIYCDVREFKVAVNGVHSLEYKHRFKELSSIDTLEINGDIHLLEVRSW
Method: (§1) The inhibitory potential of prepared Lac-CS-DDMs toward Gal-1, Gal-3, Gal-8, and Gal-9 was determined using a competitive ELISA assay with immobilized asialofetuin (ASF; a glycoprotein terminated with LacNAc moieties).[41] ASF (0.1 μM in PBS, 50 μL/well) was coated in microtiter plates (Nunc Immuno Sorb, Thermo Fisher Scientific, USA) and incubated overnight. Then, the wells were washed with 3 × 250 μL of PBS buffer containing 0.05% Tween; this washing step followed each incubation step. The wells were then blocked with 2 mg/mL BSA in PBS buffer (250 μL/well) and incubated for 1 h. […] The reaction was stopped by adding 3 M HCl (50 μL per well), accompanied by a color shift to yellow as determined spectrophotometrically by an absorbance microplate reader (Sunrise Tecan Group Ltd., CH). […] A background value, as a mean of the negative control wells containing buffer instead of galectin/ligand, with an absorbance of ca. 0.05–0.075 was subtracted from the measured absorbances. The values of half maximal inhibitory constants (IC50) were calculated from the non-linear regression (dose–response inhibition-variable slope) of the sigmoidal curves using GraphPad Prism 7 (GraphPad Software, USA) from at least three independent experiments with at least two different galectin batches. […]

[4] = target: T2, Gal-9 (Homo sapiens, UniProt O00182, A222P/DEL149-219); assay: competitive ELISA with immobilized asialofetuin (ASF), Gal-9; assay type: binding; settings: 1 μM Gal-9, immobilized ASF, DMSO co-solvent
T2 construct: made in house; host or cells: Escherichia coli Rosetta 2(DE3)pLysS
T2 sequence (O00182 with tags, fused parts or gaps DEL149-219/A222P): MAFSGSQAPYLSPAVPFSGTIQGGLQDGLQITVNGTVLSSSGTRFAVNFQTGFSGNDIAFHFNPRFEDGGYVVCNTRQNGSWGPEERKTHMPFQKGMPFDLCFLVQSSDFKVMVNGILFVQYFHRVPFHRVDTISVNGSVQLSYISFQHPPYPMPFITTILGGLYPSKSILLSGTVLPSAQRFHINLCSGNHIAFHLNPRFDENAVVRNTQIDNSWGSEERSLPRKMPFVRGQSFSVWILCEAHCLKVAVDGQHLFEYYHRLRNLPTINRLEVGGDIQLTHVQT
Method: as §1

[5] = target: T3, Gal-1 (Homo sapiens, UniProt P09382, C3S); assay: direct binding ELISA of galectin to immobilized ASF, Gal-1
T3 construct: made in house; host or cells: Escherichia coli Rosetta 2(DE3)pLysS
T3 sequence (P09382 whole entry C3S): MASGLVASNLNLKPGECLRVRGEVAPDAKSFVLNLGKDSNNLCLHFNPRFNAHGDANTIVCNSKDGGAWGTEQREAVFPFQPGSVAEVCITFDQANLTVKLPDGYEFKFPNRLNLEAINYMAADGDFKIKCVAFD

[6] = target: T4, Gal-3 (Homo sapiens, UniProt P17931); assay: direct binding ELISA of galectin to immobilized ASF, Gal-3
T4 construct: made in house; host or cells: Escherichia coli Rosetta 2(DE3)pLysS
T4 sequence (P17931 whole entry): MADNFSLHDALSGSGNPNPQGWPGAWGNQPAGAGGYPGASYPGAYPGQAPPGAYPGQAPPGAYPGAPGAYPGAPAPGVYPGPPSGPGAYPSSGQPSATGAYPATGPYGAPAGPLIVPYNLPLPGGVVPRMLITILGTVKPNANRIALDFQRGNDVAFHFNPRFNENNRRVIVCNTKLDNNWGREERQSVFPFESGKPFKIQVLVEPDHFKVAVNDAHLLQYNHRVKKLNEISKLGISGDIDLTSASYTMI

[7] = target: T1, Gal-8; assay: direct binding ELISA of galectin to immobilized ASF, Gal-8
[8] = target: T2, Gal-9; assay: direct binding ELISA of galectin to immobilized ASF, Gal-9
[9] = target: T5, asialofetuin (ASF; a glycoprotein terminated with LacNAc moieties) (UniProt P12763 19-359, glycoprotein terminated with LacNAc moieties (desialylated glycans)); assay: ELISA; direct binding: ASF (0.1 μM in PBS) coated on the plate, serial dilution of the galectin in EPBS (2 mM EDTA in PBS), bound galectin detected with anti-His antibody-HRP; settings: both partners purified
T5 construct: asialofetuin, the desialylated form of fetuin
T5 sequence (looked up): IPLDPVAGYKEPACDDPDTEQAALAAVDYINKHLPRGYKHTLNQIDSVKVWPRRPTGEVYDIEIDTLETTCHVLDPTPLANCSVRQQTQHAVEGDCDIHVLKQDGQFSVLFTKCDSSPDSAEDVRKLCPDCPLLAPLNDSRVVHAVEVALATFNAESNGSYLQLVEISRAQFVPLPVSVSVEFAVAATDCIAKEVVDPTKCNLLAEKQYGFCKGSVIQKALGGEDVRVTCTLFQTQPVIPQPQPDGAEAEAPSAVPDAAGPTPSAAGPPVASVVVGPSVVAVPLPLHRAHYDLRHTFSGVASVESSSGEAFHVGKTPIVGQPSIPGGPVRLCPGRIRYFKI

Molecule	PI (polydispersity index) [2]	hydrodynamic diameter, aggregates >0.5 μm [2] [μm]	hydrodynamic diameter, small particles <50 nm (first fraction) [2] [nm]	intensity-weighted abundance, aggregates >0.5 μm [2] [%]	intensity-weighted abundance, small particles <50 nm (first fraction) [2] [%]	other results
Recombinant human galectin-9 (Gal-9) with a truncated mutated peptide linker HPPYPMPF, N-terminal His-tagged (natural protein)						Kd [1]: 0.3 µM
Gal-8: recombinant human galectin-8, N-terminal His-tagged, full-length peptide linker of 34 aa	0.7	1.4 ± 0.3	5.4 ± 0.5	80	20	
Recombinant human galectin-1 (Gal-1) with mutation C2S, N-terminal His-tagged (natural protein)						Kd [1]: 4.4 µM
OC[C@H]1O[C@@H](O[C@H]2[C@H](O)[C@@H](O)C(O)O[C@@H]2CO)[C@H](O)[C@@H](O)[C@H]1O (mixture of isomers) [lactose]						IC50 [3]: 1680 ± 420 µM; IC50 [4]: 1350 ± 440 µM
Gal-3: recombinant human galectin-3, N-terminal His-tagged	0.6	1.1 ± 0.1	7.9 ± 1.4	13	36	hydrodynamic diameter, aggregates >0.1 μm [2]: 0.4 ± 0.1 μm; intensity-weighted abundance, aggregates >0.1 μm [2]: 40%
ASF: asialofetuin, a glycoprotein terminated with LacNAc moieties, immobilized competitor in ELISA						Kd [5]: 4.4 µM; Kd [6]: 3.2 µM; Kd [7]: 0.37 µM; Kd [8]: 0.3 µM
Gal-1: recombinant human galectin-1, N-terminal His-tagged, C2S mutation	0.4	1.2 ± 0.5	1.3 ± 0.1	32	47	hydrodynamic diameter, small particles <50 nm (second fraction) [2]: 19.0 ± 6.0 nm; intensity-weighted abundance, small particles <50 nm (second fraction) [2]: 21%
Recombinant human galectin-8 (Gal-8) with a full-length peptide linker of 34 aa, N-terminal His-tagged (natural protein, UniProt O00214 1-317, looked up, galectin-8 (tandem repeat), human; contains a full-length peptide linker of 34 aa (3717 Da); ca. 36 kDa; cloned in pET-Duet1 (AscI/NotI); plasmid a gift from Prof; L. Elling; source: E. coli Rosetta 2(DE3)pLysS, purified (Ni-NTA); not shown: His tag, N-terminal, kept) MMLSLNNLQNIIYNPVIPFVGTIPDQLDPGTLIVIRGHVPSDADRFQVDLQNGSSMKPRADVAFHFNPRFKRAGCIVCNTLINEKWGREEITYDTPFKREKSFEIVIMVLKDKFQVAVNGKHTLLYGHRIGPEKIDTLGIYGKVNIHSIGFSFSSDLQSTQASSLELTEISRENVPKSGTPQLRLPFAARLNTPMGPGRTVVVKGEVNANAKSFNVDLLAGKSKDIALHLNPRLNIKAFVRNSFLQESWGEEERNITSFPFSPGMYFEMIIYCDVREFKVAVNGVHSLEYKHRFKELSSIDTLEINGDIHLLEVRSW						Kd [9]: 0.37 µM
